Consider one substance from PMC5446653.

The target in the test is human coxsackievirus and adenovirus receptor on CHO-CAR cells (human) (UniProt P78310).

As to “soluble recombinant HAdV-5 fiber knob Y477A (from UniProt P11818 1-581) (domain or fragment)”, the inhibition of HAdV-5-EGFP transduction of CHO-CAR cells (EGFP-positive cells by flow cytometry) after preincubation with FK*, 0.0001 to 100 μg/10^5 cells, 1 h at 4°C (μg/10^5 cells) was over 100.
